Holding throughout (experiment): iTopia ELISA-like peptide-HLA binding
(In general: In an ELISA, binding on a coated surface is turned into a signal by an enzyme label.)

Assay [1] concerns the target T1, Class I HLA molecule A*1101 in recombinant form (UniProt P04439 25-302).
T1 MHC heavy: not shown
From the text: (§1) In order to identify and validate the immunogenic epitopes of the protein VK3-20, the iTopia™ high-throughput Epitope Discovery System was used (Beckman Coulter).

The target of assay [2] is Class I HLA molecule B*0702 in recombinant form (UniProt P01889 25-302).
From the text: as §1

Assay [3] concerns the target Class I HLA molecule A*0301 in recombinant form (UniProt P04439 25-302).
From the text: as §1

Assay [4] deals with T2, Class I HLA molecule B*1501 in recombinant form (limits assumed).
T2 MHC heavy: not shown
From the text: as §1

In assay [5] the target is T3, Class I HLA molecule A*0201 in recombinant form.
T3 construct: also called HLA-A*0201
T3 MHC heavy: not shown
From the text: as §1

Assay [6] deals with T4, Class I HLA molecule B*0801 in recombinant form (UniProt P01889 25-309, limits assumed).
T4 MHC heavy: not shown
From the text: as §1

Assay [7] concerns the target T5, Class I HLA molecule A*0101 in recombinant form.
T5 MHC heavy: not shown
From the text: as §1

Assay [8] has as its target T6, Class I HLA molecule A*2402 in recombinant form.
T6 MHC heavy: not shown
From the text: as §1

B1: VK3-20 peptide No 97 RTFGQGTKV (peptide)
peptide: RTFGQGTKV
Turning to B1, the Bond results was found to be 15% in assay [1]; 1% in assay [2]; 37% in assay [3]; 4% in assay [4]; 30% in assay [5]; 2% in assay [6]. For the same molecule, in assay [7], the Bond results was 1%.

B2: VK3-20 peptide No 2 IVLTQSPGT (peptide)
peptide: IVLTQSPGT
As for B2, the Bond results in assay [1] was determined as 1%; in assay [2], 1%; in assay [8] it was 11%; in assay [3] it was 1%; in assay [4], 0%; in assay [5], 22%. Moreover, the Bond results in assay [6] was found to be 2%; in assay [7], 1%.

B3: VK3-20 peptide No 91 QYGSSPRTF (peptide)
peptide: QYGSSPRTF
B3: the Bond results in assay [1] came out at 1%; in assay [8], 65%; in assay [3], 1%; in assay [4], 2%; in assay [5] it was 0%; in assay [6] it was 1%. Moreover, the Bond results in assay [7] is 1%.

B4: VK3-20 peptide No 86 VYYCQQYGS (peptide)
peptide: VYYCQQYGS
With B4, the Bond results stood at 1% in assay [1]; 21% in assay [8]; 0% in assay [3]; 1% in assay [4]; 1% in assay [5]; 0% in assay [6]. In addition, the Bond results in assay [7] turned out to be 1%.

B5: VK3-20 peptide No 95 SPRTFGQGT (peptide)
peptide: SPRTFGQGT
In the case of B5, the Bond results in assay [1] was found to be 0%; in assay [2], 41%; in assay [8], 12%; in assay [3], 2%; in assay [4] it was 2%; in assay [5] it was 0%. For the same molecule, the Bond results in assay [6] stood at 2%; in assay [7], 1%.

B6: VK3-20 peptide No 78 RLEPEDFAV (peptide)
peptide: RLEPEDFAV
As to B6, the Bond results was found to be 2% in assay [1]; 4% in assay [2]; 2% in assay [3]; 2% in assay [4]; 19% in assay [5]; 0% in assay [6]. Also, the Bond results in assay [7] was found to be 1%.

B7: VK3-20 peptide No 48 LIYGASSRA (peptide)
peptide: LIYGASSRA
For B7, the Bond results worked out at 60% in assay [1]; 11% in assay [4]; 32% in assay [5]; 3% in assay [6]; 1% in assay [7].

B8: VK3-20 peptide No 46 RLLIYGASS (peptide)
peptide: RLLIYGASS
Consider B8, for which the Bond results came out at 0% in assay [2]; 0% in assay [8]; 0% in assay [3]; 0% in assay [4]; 24% in assay [5]; 0% in assay [6]. Further, in assay [7], the Bond results is 0%.

B9: VK3-20 peptide No 72 FTLTISRLE (peptide)
peptide: FTLTISRLE
In the case of B9, the Bond results was 4% in assay [1]; 11% in assay [2]; 18% in assay [8]; 2% in assay [3]; 3% in assay [4]; 22% in assay [5]. Besides, the Bond results in assay [6] was 6%; in assay [7], 4%.

B10: VK3-20 peptide No 20 TLSCRASQI (peptide)
peptide: TLSCRASQI
notes: also called P20
For B10, the Bond results in assay [1] was 2%; in assay [2], 3%; in assay [8], 14%; in assay [3] it was 2%; in assay [4] it was 1%; in assay [5], 28%. For the same molecule, the Bond results in assay [7] is 1%.

B11: VK3-20 peptide No 42 GQAPRLLIY (peptide)
peptide: GQAPRLLIY
B11: the Bond results in assay [8] was 12%; in assay [3], 10%; in assay [4] it was 49%; in assay [5] it was 10%; in assay [6] it was 2%; in assay [7] it was 0%.

B12: VK3-20 peptide No 40 KPGQAPRLL (peptide)
peptide: KPGQAPRLL
For the molecule B12, the Bond results in assay [1] was found to be 0%; in assay [2], 29%; in assay [3] it was 2%; in assay [4], 0%; in assay [5], 2%; in assay [6] it was 1%. Also, the Bond results in assay [7] was 0%.

B13: VK3-20 peptide No 28 IVSSSYLAW (peptide)
peptide: IVSSSYLAW
For the molecule B13, the Bond results in assay [1] was determined as 3%; in assay [8], 34%; in assay [3], 4%; in assay [4] it was 0%; in assay [6], 2%; in assay [7] it was 0%.

B14: VK3-20 peptide No 47 LLIYGASSR (peptide)
peptide: LLIYGASSR
Take B14: the Bond results in assay [1] came to 85%; in assay [2] it was 4%; in assay [3], 4%; in assay [5], 33%; in assay [6], 1%; in assay [7], 0%.

B15: VK3-20 peptide No 29 VSSSYLAWY (peptide)
peptide: VSSSYLAWY
In the case of B15, the Bond results in assay [2] turned out to be 1%; in assay [8], 12%; in assay [3], 2%; in assay [4], 2%; in assay [5], 4%; in assay [6] it was 1%. For the same molecule, the Bond results in assay [7] was determined as 44%.

B16: VK3-20 peptide No 90 QQYGSSPRT (peptide)
peptide: QQYGSSPRT
Turning to B16, the Bond results in assay [1] came to 11%; in assay [3], 3%; in assay [4] it was 24%; in assay [5], 12%; in assay [6], 1%; in assay [7] it was 1%.

B17: VK3-20 peptide No 25 ASQIVSSSY (peptide)
peptide: ASQIVSSSY
In the case of B17, the Bond results in assay [8] is 13%; in assay [3], 2%; in assay [4], 49%; in assay [6], 2%.

B18: VK3-20 peptide No 3 VLTQSPGTL (peptide)
peptide: VLTQSPGTL
On to B18, for which the Bond results in assay [1] came to 0%; in assay [2], 0%; in assay [8], 18%; in assay [3], 2%; in assay [4], 0%; in assay [5], 23%. Also, the Bond results in assay [6] was 1%; in assay [7] it was 0%.

B19: VK3-20 peptide No 33 YLAWYQQKP (peptide)
peptide: YLAWYQQKP
Regarding B19, the Bond results in assay [1] turned out to be 2%; in assay [8], 14%; in assay [3] it was 4%; in assay [4] it was 2%; in assay [5] it was 41%; in assay [6] it was 2%. In assay [7], the Bond results worked out at 0%.
